Reference: paper PMC4336326, “The Nucleocapsid Protein of Human Coronavirus NL63” (PLoS ONE, 2015)

Tests used:
[1] = molecular target: C-terminal domain of the HCoV-NL63 nucleocapsid protein (HCoV-NL63 (isolate Amsterdam 1)) (UniProt Q6Q1R8); experiment: cross-linking; 50 ug of protein with 0.007% glutaraldehyde, 15 min at room temperature, stopped with Tris, then SDS-PAGE (Coomassie)
[2] = molecular target: C-terminal domain of the HCoV-NL63 nucleocapsid protein (HCoV-NL63 (isolate Amsterdam 1)) (UniProt Q6Q1R8); experiment: SEC; CTD analysed by size exclusion chromatography; two peaks taken as dimer and monomer from retention time and SDS-PAGE; column and buffer not given
[3] = molecular target: the molecule itself; experiment: native MS; ESI mass spectrometry (MicroTOF-QII, positive ionization mode) of samples dialysed into 50 mM NH4HCO3, pH 7.8; masses of monomer and dimer from deconvolved spectra

Row | Molecule | stoichiometry N [1] | percent of the protein present as dimers [2] [%] | stoichiometry N [2] | stoichiometry N [3]
1 | C-terminal domain of the HCoV-NL63 nucleocapsid protein (from UniProt Q6Q1R8 221-340) (domain or fragment) | > 2 | 40 | 2 | –
2 | HCoV-NL63 nucleocapsid (N) protein, complete (natural protein, also called WT; complete NL63-N protein; source: E. coli BL21, purified (Ni Sepharose, Resource Q, Superdex S75) to about 80% homogeneity) MASVNWADDRAARKKFPPPSFYMPLLVSSDKAPYRVIPRNLVPIGKGNKDEQIGYWNVQERWRMRRGQRVDLPPKVHFYYLGTGPHKDLKFRQRSDGVVWVAKEGAKTVNTSLGNRKRNQKPLEPKFSIALPPELSVVEFEDRSNNSSRASSRSSTRNNSRDSSRSTSRQQSRTRSDSNQSSSDLVAAVTLALKNLGFDNQSKSPSSSGTSTPKKPNKPLSQPRADKPSQLKKPRWKRVPTREENVIQCFGPRDFNHNMGDSDLVQNGVDAKGFPQLAELIPNQAALFFDSEVSTDEVGDNVQITYTYKMLVAKDNKNLPKFIEQISAFTKPSSIKEMQSQSSHVAQNTVLNASIPESKPLADDDSAIIEIVNEVLH | – | – | – | 2
